The record followed here is the nanobody polyreactivity screen of Harvey et al. (2022).

A short description of the series: yeast display, Sf9 membrane polyspecificity reagent, FACS + sequencing; frameworks hold sequencing errors. The procedure, abridged: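 Using colony PCR, genes from sorted yeast display clones were amplified, then sequenced on MiSeq at 2 × 250 and filtered by CDR length. The clones had been stained with 10% biotinylated, detergent-solubilized Sf9 membrane reagent for 1 hour at 4 °C and sorted by FACS into low and high (top ~1%) gates on anti-HA and streptavidin fluorescence. Polyreactivity labels come from the gate of origin.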
On to “QVQLVESGGGLVQAGGSLRLSCAAYGSTFRRNTMGWYRQAPGKERELVAGISSSGGSTYYADSVKGRFTISRDTAMNTVYLQMNSLKPEDTAVYYCAARYYVSYVGYNYWGQCTQVTVSS”, for which the “polyreactivity (PSR sort gate)” value is recorded as “high polyreactivity”.

Turning to “QVQLVESGGGLVQAGGSLRLSCAASGSTFQTNAMGWYRQAPGKERELVAAINSGGGTNYADSVKGRFTISRDNAKNTVYLQMNSLKPEDTAVYYCATDVLPRKYVSDYPSGAYDYWGQGTQVTVSS”, the “polyreactivity (PSR sort gate)” value is “low polyreactivity”.

Take “QVQLVESGGGLVQAGGSLRLSCAASGSTLPRYTMGWYRQAPGKERELVAAISFSGSSTYYADSVKGRFTISRDNAKNTVYLQMNSMKPEDTSVYYCRYGYNYWGQGTQVTVSS”: the “polyreactivity (PSR sort gate)” value is on record as “high polyreactivity”.

Regarding “QVQLVESGGGLVQAGGSLRLSCAASGSRNAMGWYRQEPGKERQFVAAITWNGGSTYYADSVKGRFTITRDNAKNTVYLQMNSLKPEDTAVYYCAADVVFPFSVGYDYWGQGTQVTVSS”, the “polyreactivity (PSR sort gate)” value is “low polyreactivity”.

Take “QVQLVESGGGLVQAGGSLRLSCAASGNTFYANTMGWYRQAPGKERELVAAITVRGASTNYADSVKGSFTISRDNAKNTVYLQMNSLKPEDTAVYYCNAVGLRSPWHQDYLIRYDYRGQGTQVTVSS”: the “polyreactivity (PSR sort gate)” value is listed as “low polyreactivity”.

“QVQLVESGGGLVQAGGSLRLSCAASGSIFLIYAMGWYRQAPGKERELVATINRGDNTYYADSVKGRFTISRDNAKNTVYLQMNSLKPEDTAVYYCAADVPWGWWDSDFSDNYYWGQGTQVTVSS”: the “polyreactivity (PSR sort gate)” value is listed as “low polyreactivity”.

For “QVQLVESGGGLVQAGGSLRLICAASGRTFVYYAMGWYRQAPGKERELVAAITRSGGRTYYEDSVKGSFTISRDNAKNNVYLQMNSLKPEDTAVYYCAARYWDNPFWFDYWGQGTIVTVSS”, the “polyreactivity (PSR sort gate)” value is “high polyreactivity”.

Regarding “QVQLVESGGGLVQAGGSLRLSCAASGGPFWYYAMGWYRQAPGKERELVAAITRGGSTSYADSVKGRFTISRDNAKKTVYLQMNSLKPEDTAVYYCNARPYSSYWRYNYWGQGTQVTVSS”, the “polyreactivity (PSR sort gate)” value was “high polyreactivity”.

Consider “QVQLVESGGGLVQAGGSLRLSCAASGSTFWLYAMGWYREAPGKERELVATISERGGSTYYADSVKGRFTISRDYAKNTVYFQMNSLKPEDTAVYYCAADQFHYPRGRRYDYWGQGTQVTVSS”, for which the “polyreactivity (PSR sort gate)” value is recorded as “low polyreactivity”.

In the case of “QVQLEESGGGLVQAGGSLRLSCAASGSTCGYYAMGWYRQAPGKERELVAVITRGGSTYYADSVKGRFTISRDNAMNTVYLQMNSLKPEDTAVYYCNARVQAVHYGYWGQGTQVPVSS”, the “polyreactivity (PSR sort gate)” value is on record as “high polyreactivity”.

On to “QVQLVESGGGLVQAGGSLRLSCAASGFTLSRYAMGWYRQAPGKERELVAAISSSGDSTYYADSVKGRFTISRDNAKNTVYLQMNSLKPEDTAVYYCNVYTYHRYDYWGQGTQVTVSS”, for which the “polyreactivity (PSR sort gate)” value was “high polyreactivity”.

As to “QVHLVESGGGLVQAGGSLRLSCAASGRTFYANAMGWYIQAPGKERELVAAISTGGDGTYYADSVKGRFTISRDNAKNTVYLQMNSLKPEDTAVYYCAVRHRASGILYDYWGQGTQVTVSS”, the “polyreactivity (PSR sort gate)” value is recorded as “low polyreactivity”.

As for “QVQLVESGGGLVQAGGSLRLSCAASGRIFGWYAMGWYRQAPGKERELVAAISSGGRTNYADSVKGRFTISRDNAKNTVYLQMNSLKPEDTAVYYCNARRTYLPYKFGYDYWGQGTQVTVSS”, the “polyreactivity (PSR sort gate)” value was “low polyreactivity”.

With “QVQLVESGGGLVQAAGSLRLICAASGSIFTRYTMGWYRQAPGKERELVAVISDSSGRTYYADSVKGRFTISRDNAKNTVYLQMNSLKPEDTAVYYCAAEYSDIYEYWGQGTQVTVSS”, the “polyreactivity (PSR sort gate)” value is reported as “low polyreactivity”.

On to “QVQLVESGGGLVQAGGSLRLSCAASGITFYRNAMGWYRQAPGKERELVAAIDVGDGTYYADSVKGRFTISRDNAKNTDYLQMNSLKPEDTAVYYCNKTFLFLEYDSWGQGTQVTVSS”, for which the “polyreactivity (PSR sort gate)” value is recorded as “low polyreactivity”.

Regarding “QVQLVESGGGLVQAGGSLRLSCSASGSIFVGYAIGWYRQAPVKEMELDASISSGDDTYADSVKGRFTISRDNAKNSVYLQMNSLKPEDTAVYYCAKDSISVDCAYDYWVQGTQVTVSS”, the “polyreactivity (PSR sort gate)” value is reported as “low polyreactivity”.

“QVQLVESGGGLVQAGGSLRLSCAASGRIFIVNTMGWYRQAPGKERELVATIDSDGDTNYADSVKGRFTISRDNAKNTVYLQMNSLKPEDTAVYYCAASYTHTLAALKGGRMDYWGQGTQVTVSS”: the “polyreactivity (PSR sort gate)” value was “low polyreactivity”.

Consider “QVQLVESAGGLVQAGGSLRLSCAASGSTIYGCVMGWYRHAPGKERELVAGITRGGSTNYADSVKGRFTISRDNAKNTVYLQMNSLKPEDTAVYYCATRYFSRYYYWGQGTQVTVSS”, for which the “polyreactivity (PSR sort gate)” value is given as “high polyreactivity”.

“QVQLVESGGGLVQAGGSLRLSCAASGLIFPRYGMGWYRQAPGKERELVAAISRSGGNTYYADSVKGRFTISRDNAKNTVYLQMNSLKPEDTAVYYCAAYFSTAPKSQYKLDYRGQGTQVTVSS”: the “polyreactivity (PSR sort gate)” value is recorded as “high polyreactivity”.

As to “QVQLVESGGGLVQAGGSLRLSCAASGRTFTHYAMGWYRQAPGKERELVAAISWSGGRTYYADSVKGRFTISRDNAKNTVYLQMNSLKPEDTAVYYCAADAFRGFYWGQGTQVTVSS”, the “polyreactivity (PSR sort gate)” value is “high polyreactivity”.

For “QVQLVESGGGLVQAGGSLRLSCAASGRTFAINAMGWYRQATAKERELVADITTDGYTYYADSVKGRFTISRDNAKNTVYLQMNSLKPEDTAVYYCATDSLDYFIRFKQFGYWGQGTQVTVSS”, the “polyreactivity (PSR sort gate)” value is on record as “low polyreactivity”.

As for “QVQLVESGGGLVQAGGSLRLSCAASGSTIPPYAMGWYRQAPGKERELVAAITSGGSTYYAESVKGRFTISRDNAKNTVYLQMNSLKPEDTAVYSCAASWDPWEYDYWGQGTQVTVSS”, the “polyreactivity (PSR sort gate)” value is “low polyreactivity”.

As for “QVQLVESGGGLVQAGGSIRLSCAASGRIFQYYAMGWYRQAPGKERELVAAISRSGGRTRYADSVKGRFTISRDNAKNTVYLQMNSLKPEDTAVYYCAASYGYDSTSLYDYWGQGTQVTVSS”, the “polyreactivity (PSR sort gate)” value is “high polyreactivity”.

Turning to “QVQLVESGGGLVQAGGSLRLSCAASGRIFGINAMGWYRQAPGKERELVAAITWSGDGTYDADSVKGRFTISRDNAKNTVYLQMNSLKPEDTAVYYCAKQLPEISQMDYWGQGTQVTVSS”, the “polyreactivity (PSR sort gate)” value was “low polyreactivity”.

In the case of “QVQLVESGGGLVQAGGSLRLSCAASGSIFGGYGLGWYRQAPGKERELVAASTSGSSTYYADSVKGRFTISRDNAKNTVYFPMNSLKPEDTAVSYFAARPFPHSAYEGDYWGRGTQVTVSS”, the “polyreactivity (PSR sort gate)” value is “low polyreactivity”.

Turning to “QVQLVESGGGLVQEGGSLRLSCAASGLICQHNARVWSRHAPGKERELVAAISRSAGSSYYADSEKGRFTISRDNAKNTVYLQMNCLKPEDTAVFYCAKRPTPTTKDDTVRYGYWGQGSQVTVSS”, the “polyreactivity (PSR sort gate)” value was “low polyreactivity”.

With “QVQLVESGGGLVQAGGSLRLSCAASGNTFLRYAMGWYRQAPGKERELVAAISTSGDSTYYADSVKGRFTISRDNAKNTVYLQMNSLKPEDTAVYYCAAAWYIHTIAYGCWGQGTQVTVSS”, the “polyreactivity (PSR sort gate)” value is recorded as “high polyreactivity”.

“QVQLVESGGGLVQAGGSLRLSCAASGRIFKSYAMGWYRQAPGKERELVASIRTGGTTNYADSVNGRFTISRDNAKNTVYLQMNSLKPEDTAVYDCNRGYYSYYGRYYYWGQGTQVTVSS”: the “polyreactivity (PSR sort gate)” value is given as “high polyreactivity”.

As for “QVQLVESGGGVVQAGGSLRLSCAASGSFFYVYAMGWYRQAPGKERELVAAITATYYADSVKGRFTISRDNAKNTVYLQMNSLKPEDTAVYYCAAAPWTYWEDYDFWGQGTQVTVSS”, the “polyreactivity (PSR sort gate)” value was “low polyreactivity”.

In the case of “QVQLVESGGGLVQAGGSLRLSCAASGLTFKYYAMGWYRQAPGKERELVAAISASGGRTSYADSVKGRFTISRDNAKNTFYLQMNSLKPEDTAVYYCNADITSSGPKSDYWGQGTQVTVSS”, the “polyreactivity (PSR sort gate)” value is recorded as “high polyreactivity”.

With “HVQLVESGGGLVQAGGSLRLSCAASGSTFNRYAMGWYRQAPGKERELVAAITERGGSTYYADSVKGRFTISRDNAKNTVYLQMNRLIPEDTAVYYCAARSKYYRSTPFVSDYWGQGTQVTVSS”, the “polyreactivity (PSR sort gate)” value was “high polyreactivity”.

In the case of “QVQLVESGGGLVQAGGSLRLSCAASGSTLRTYAMGWYRQAPGKERELVAAISFSTTSTYYADSVKGRFTISRDNAKNTVYLQMNSLKPEDTAGYDCAAGPRTRYQPDLPGCYYSWGQGTQVTVSS”, the “polyreactivity (PSR sort gate)” value is “high polyreactivity”.

“QVQLVESGGGLVQAGGSLRLSCAASGRTFGRNVMGWYRQAPGKERELVAAISRSGGSTYYADSVKGRFTISRDNAKNTVYLQINSLKPEDTAVYYCAAYSVGDYYWGQGTQVTVSS”: the “polyreactivity (PSR sort gate)” value was “high polyreactivity”.

In the case of “QVQLVESGGGLVQAGGSLRLSCAASGRTFYKNAMGWYRQAPGKERELVAAISQRGGGTYYADSVKGRFTISRDNAKNTVYLQMNSLKPEDTAVYYCNAPLVFIHGSDYWGQGTQVTVSS”, the “polyreactivity (PSR sort gate)” value is “high polyreactivity”.

For “QVHLVESGGGLVQAGGSLRLSCAASGFTLFGYAMGWYRQAPGKERELVAAISKDGGSTYYADSVKGRFTISRDNAKNTVYLQMNSLKPEDTAVYYCAARVKRPQTGYDRRYGYWGQGTQVTVSS”, the “polyreactivity (PSR sort gate)” value is “high polyreactivity”.

With “QVQLVESGGGLVQAGGSLRLSCAASGSTFPRNAMGWYRQAPGKERELVAAISSGGSTYYADSVKWRFTISRDNAKNTVYLQMNSLKPEDTAVYYCAARLYWPIIVVDLYGYDYWGQGTQVTVSS”, the “polyreactivity (PSR sort gate)” value is on record as “low polyreactivity”.

With “QVQLVESVGGLVQAGGSLRLSCAASGSTIDGYAMGCYIQAPGKEREFVAAISFSSASTYYADSVKGRFTISRDNAKNTVYLQMNSLKPEDTAVYYCNADFFDSGGSIEDDSWGQGTQVTVSS”, the “polyreactivity (PSR sort gate)” value is “low polyreactivity”.

“QVQLVESGGGLVQAVGSLRLSCAASGRIFRHNAMGWYRQAPGKEWELVAAISGGGTTYYADSVKGRFTISRDNAKNTVYLQMNSLKPEDTAVYYCAARRRGSVGVGYAYAYYYWGQGTQVTVSS”: the “polyreactivity (PSR sort gate)” value is on record as “high polyreactivity”.

On to “QVQLVESCGGLVQAGGSLRLSCADSGYTFTTYVMGWYRQAPGKERELVAAISRRGTSTRYADSVKGRFTISRDNAKNTVYFQMNSLKPEDTAVYYCAARSSVPNRFTRDGYWGQGTQVTVSS”, for which the “polyreactivity (PSR sort gate)” value was “high polyreactivity”.

Take “QVQLVESGGGLVQAGGSLRLSCAASGRIFDDYAMGWNRQAPGKERELVAAISSSVGNTYYADSVKGRFTISRDNAKYTVYLQMNSLKPEDTAVYYCADYSYVRSSYEVEYDYWGQATQVTVSS”: the “polyreactivity (PSR sort gate)” value was “low polyreactivity”.

In the case of “QVQLVESGGGLVQAGGSLRLSCAASGSIFYAYAMGWYRQAPGKERELVAGINTRGGSTYYADSVKGRFTISRDNAKNTVYLQMNSLKPEDTAVYYCNARTLTVLEFDYWGQGTQVTVSS”, the “polyreactivity (PSR sort gate)” value is reported as “low polyreactivity”.
